This note sets out measurements from PMC10602884, “Distinct RPA functions promote eukaryotic DNA replication initiation and elongation”.

Data set [1] has as its target RPA (CBP-Rfa1, Rfa2, Rfa3) (Saccharomyces cerevisiae, UniProt P22336;P26754;P26755 1-621;1-273;1-122). Nature of the data set: fluorescence anisotropy; 0.5 M NaCl; apparent Kd, Hill coefficient 2.460; 30 mM HEPES pH 7.5, 30 mM NaCl, 0.25 mM EDTA, 10% glycerol, 0.01% NP-40, 1 mM DTT, plus 0.5 M NaCl for dT30 (no supplemental NaCl for dT60), 2.5 nM DNA, room temperature, 30 min. To be noted: protein: recombinant; tags: CBP on Rfa1; copies: 1;1;1; label: 6-FAM; single strand.

In data set [2] the target is EcSSB (Escherichia coli, UniProt P0AGE0 1-178). Kind of data set: fluorescence anisotropy; 0.5 M NaCl; apparent Kd, Hill fit; 30 mM HEPES pH 7.5, 30 mM NaCl, 0.25 mM EDTA, 10% glycerol, 0.01% NP-40, 1 mM DTT, plus 0.5 M NaCl for dT30 (no supplemental NaCl for dT60), 2.5 nM DNA, room temperature, 30 min. To be noted: protein: commercial; chain copies: 4; label: 6-FAM; single strand.
Chain of EcSSB (P0AGE0 whole entry): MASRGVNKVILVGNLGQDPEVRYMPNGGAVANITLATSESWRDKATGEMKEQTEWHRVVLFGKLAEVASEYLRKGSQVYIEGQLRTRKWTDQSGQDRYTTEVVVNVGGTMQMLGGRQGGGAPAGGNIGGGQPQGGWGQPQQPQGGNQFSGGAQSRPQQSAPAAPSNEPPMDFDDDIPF

Data set [3] concerns the target RPA-deltaOB-F-deltaWH (Saccharomyces cerevisiae, UniProt P22336;P26754;P26755 131-621;1-202;1-122). The description is as above. The conditions noted are these: protein: recombinant; tags: CBP on Rfa1; 3xFlag on Rfa2; copies: 1;1;1; label: 6-FAM; single strand.
Data set [4] concerns the target RPA-Tri-C (OB-C/D/E) (Saccharomyces cerevisiae, UniProt P22336;P26754;P26755 442-621;32-182;1-122). Described as above. The conditions noted are these: protein: recombinant; tags: Rfa2 C-terminal MxeGyrA intein-CBD-6xHis (in expression construct); copies: 1;1;1; label: 6-FAM; single strand.
The target of data set [5] is T1, Gp32 (T4 bacteriophage, UniProt P03695 1-301).
T1 sequence: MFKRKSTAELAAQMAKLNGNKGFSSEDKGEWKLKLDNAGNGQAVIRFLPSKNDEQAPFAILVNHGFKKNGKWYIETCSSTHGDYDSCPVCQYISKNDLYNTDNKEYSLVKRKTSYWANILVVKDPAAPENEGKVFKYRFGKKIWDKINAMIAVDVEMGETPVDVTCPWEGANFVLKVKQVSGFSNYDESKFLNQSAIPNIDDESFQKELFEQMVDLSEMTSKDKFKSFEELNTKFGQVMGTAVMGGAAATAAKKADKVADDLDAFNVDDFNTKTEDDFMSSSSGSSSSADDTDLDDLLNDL
The data set is described as above. The conditions noted are these: protein: commercial; label: 6-FAM; single strand.

The target of data set [6] is Pol-alpha/primase (UniProt P13382;P38121;P20457;P10363 1-1468;1-705;1-528;1-409). Kind of data set: fluorescence anisotropy; DNA pre-bound with equimolar (2.5 nM) RPA-deltaOB-F (P8); matches naked DNA; 30 mM HEPES pH 7.5, 30 mM NaCl, 0.25 mM EDTA, 10% glycerol, 0.01% NP-40, 1 mM DTT, plus 0.5 M NaCl for dT30 (no supplemental NaCl for dT60), 2.5 nM DNA, room temperature, 30 min. To be noted: protein: recombinant; copies: 1;1;1;1; label: 6-FAM; single strand.

Chain of RPA-deltaOB-F-deltaWH (P22336 131-621, stated change not applied, chain 1 of 3): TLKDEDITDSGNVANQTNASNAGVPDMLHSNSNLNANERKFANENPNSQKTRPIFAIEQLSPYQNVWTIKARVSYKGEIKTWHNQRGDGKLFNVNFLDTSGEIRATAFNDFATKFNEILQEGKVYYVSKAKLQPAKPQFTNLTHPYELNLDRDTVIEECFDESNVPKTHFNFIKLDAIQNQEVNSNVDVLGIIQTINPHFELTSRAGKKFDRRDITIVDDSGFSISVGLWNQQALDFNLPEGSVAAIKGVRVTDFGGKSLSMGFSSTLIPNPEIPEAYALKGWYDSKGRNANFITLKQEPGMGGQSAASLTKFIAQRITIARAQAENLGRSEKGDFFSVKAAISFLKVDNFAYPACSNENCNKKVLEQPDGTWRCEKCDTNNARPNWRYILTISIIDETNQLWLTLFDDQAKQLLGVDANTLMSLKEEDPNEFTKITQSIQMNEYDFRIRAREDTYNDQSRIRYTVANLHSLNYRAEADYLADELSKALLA
Chain of RPA-deltaOB-F-deltaWH (P26754 1-202, stated change not applied, chain 2 of 3): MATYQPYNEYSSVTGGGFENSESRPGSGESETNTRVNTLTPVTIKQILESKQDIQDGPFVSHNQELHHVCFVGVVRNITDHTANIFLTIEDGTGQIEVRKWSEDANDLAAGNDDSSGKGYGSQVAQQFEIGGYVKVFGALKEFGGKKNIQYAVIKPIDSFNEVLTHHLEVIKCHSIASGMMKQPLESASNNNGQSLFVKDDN
Chain of RPA-deltaOB-F-deltaWH (P26755 whole entry, stated change not applied, chain 3 of 3): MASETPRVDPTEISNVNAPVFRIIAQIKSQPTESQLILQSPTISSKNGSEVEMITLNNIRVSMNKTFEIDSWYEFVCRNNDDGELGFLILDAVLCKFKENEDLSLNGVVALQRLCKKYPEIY
Chain of RPA (CBP-Rfa1, Rfa2, Rfa3) (P22336 whole entry, chain 1 of 3): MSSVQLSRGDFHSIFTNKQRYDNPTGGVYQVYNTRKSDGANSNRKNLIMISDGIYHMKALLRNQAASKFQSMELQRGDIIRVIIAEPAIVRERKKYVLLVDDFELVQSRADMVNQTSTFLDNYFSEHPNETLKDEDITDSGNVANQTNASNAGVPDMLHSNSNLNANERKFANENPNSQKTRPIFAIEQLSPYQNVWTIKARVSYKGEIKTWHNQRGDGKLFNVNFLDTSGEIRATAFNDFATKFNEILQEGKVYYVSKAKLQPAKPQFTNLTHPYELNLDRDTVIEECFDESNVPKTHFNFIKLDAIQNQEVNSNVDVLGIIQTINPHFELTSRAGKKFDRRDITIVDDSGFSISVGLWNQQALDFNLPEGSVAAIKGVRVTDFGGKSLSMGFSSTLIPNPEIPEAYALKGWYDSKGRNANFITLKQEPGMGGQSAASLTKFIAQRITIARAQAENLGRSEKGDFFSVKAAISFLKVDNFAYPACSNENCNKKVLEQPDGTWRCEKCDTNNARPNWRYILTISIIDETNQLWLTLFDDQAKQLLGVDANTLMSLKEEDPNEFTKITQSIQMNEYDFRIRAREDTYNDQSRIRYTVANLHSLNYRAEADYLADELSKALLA
Chain of RPA (CBP-Rfa1, Rfa2, Rfa3) (P26754 whole entry, chain 2 of 3): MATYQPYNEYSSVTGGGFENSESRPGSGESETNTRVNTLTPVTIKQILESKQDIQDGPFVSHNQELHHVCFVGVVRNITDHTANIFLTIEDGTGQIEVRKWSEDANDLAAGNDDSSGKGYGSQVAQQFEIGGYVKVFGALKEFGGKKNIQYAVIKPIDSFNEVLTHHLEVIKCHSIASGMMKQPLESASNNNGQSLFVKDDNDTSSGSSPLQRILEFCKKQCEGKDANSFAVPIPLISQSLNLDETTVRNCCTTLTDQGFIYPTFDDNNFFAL
Chain of RPA (CBP-Rfa1, Rfa2, Rfa3) (P26755 whole entry, chain 3 of 3): as the sequence (P26755 whole entry, stated change not applied, chain 3 of 3) above
Chain of RPA-Tri-C (OB-C/D/E) (P22336 442-621, chain 1 of 3): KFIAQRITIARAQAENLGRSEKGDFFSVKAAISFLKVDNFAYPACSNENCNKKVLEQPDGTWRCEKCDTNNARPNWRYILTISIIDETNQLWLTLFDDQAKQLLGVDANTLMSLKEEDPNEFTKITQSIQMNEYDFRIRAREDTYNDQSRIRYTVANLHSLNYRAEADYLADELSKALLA
Chain of RPA-Tri-C (OB-C/D/E) (P26754 32-182, chain 2 of 3): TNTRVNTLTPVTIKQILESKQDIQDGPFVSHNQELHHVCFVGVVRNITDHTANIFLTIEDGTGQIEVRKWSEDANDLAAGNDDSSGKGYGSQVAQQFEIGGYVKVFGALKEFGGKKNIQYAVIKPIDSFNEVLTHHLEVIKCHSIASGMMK
Chain of RPA-Tri-C (OB-C/D/E) (P26755 whole entry, chain 3 of 3): as the sequence (P26755 whole entry, stated change not applied, chain 3 of 3) above

As for TTTTTTTTTTTTTTTTTTTTTTTTTTTTTT (ssDNA) [6-FAM-oligo-dT30], the Kd in data set [1] was 1.73 nM; in data set [2], around 0.11 nM; in data set [3] it was around 2.04 nM; in data set [4], around 2.97 nM; in data set [5] it was around 18 nM.

B1: 6-FAM-oligo-dT60 (ssDNA)
DNA: TTTTTTTTTTTTTTTTTTTTTTTTTTTTTTTTTTTTTTTTTTTTTTTTTTTTTTTTTTTT
On to B1, for which, in data set [6], the binding result is listed as “binds”.
